Source: US12723078 (University of Texas, dated 2026)
Numbering of substitutions follows the chain as printed.

B1: mAb of B cell clone 79 (supernatant) (antibody, V domains shown)
VH: QSLEESGGGLVQPEGSLTLTCTVSGFSFSSSWYMCWVRQAPGKGLEWIACIYTLRSGAAHYANWAKGRFTISKASSTTVTLQMNSLTAADTATYFCARATYAYAGAGDLWGPGTLVTVSS
VL: ELVLTQTPSSVSAAVGGTVTINCQASEDIDRYLAWYQQKPGQRPKLLIVDASTLPSGVPSRFKGSGSGTEFTLTISDLECADGATYYCQSYDNSDNNGFGGGTEVVVK
notes: rabbit; also called B1-#79
B2: mAb of B cell clone 58 (supernatant) (antibody, V domains shown)
VH: EQSLEESGGDLVKPGASLTLTCTASAFSFSSSSWICWVRQAPGKGLEWIACIYGGSVGTTYYASWAKGRFTISKPSSTTVTLQMTSLAAADTATYFCATNTDSSRSYYNLWGPGTLVTISS
VL: ELVLTQTPSSVEVAVGGAVTIKCQASHIITNYLAWYQQRPGQPPKLLIYDASKLASGVPSRFKGSGSGTEFTLTISDLECADAATYYCQNYLYFSSGDWNVFGGGTEVVVK
notes: rabbit; also called B1-#58-1
B3: mAb of B cell clone 83 (supernatant) (antibody, V domains shown)
VH: B2 VH with E5K, G58A, S64T, A88P, I119V
VL: B2 VL with V3D
notes: rabbit; also called B1-#83
B4: mAb of B cell clone 76 (supernatant) (antibody, V domains shown)
VH: EQSVEESGGGLVQPEGSLTLTCTASGFSFSGSCDMSWVRQAPGKGLEWIACIVLSNGNTYYAGWAQGRFTISKISSTTVTLEMTSLTAADTATYFCARERYPGAFSSGLDLWGQGTLVTVSS
VL: ELDLTQTPSPVSAAVGGTVTINCQASQIVANGRLAWYQQKPGQPPKLLIYATSTLASGVPSRFKGSGSGTQFTLTINGVQCDDAATYYCQGAYSSGDVRTFGGGTEVVVK
notes: rabbit; also called B1-#76
B5: mAb of B cell clone 72 (supernatant) (antibody, V domains shown)
VH: QSVKESGGGLVQPEGSLALTCKASGIDLSNYWYMCWVRQAPGKGLEWIGCVATDSSRTHYATWAKGRFTVSKTSSTTVTLQMTSLTAADTATYFCARGSGASTNGVWWVMGDGMDLWGPGTLVTISS
VL: ELVMTQTPSSVSAAVGGTVTIKCQASPSISTYLSWYQQKPGQPPKRLINRASTLASGVPPRFKGSGAGTQFTLTISDLECADAATYYCQNNYHSGSSNGGGVAFGGGTEVEIK
notes: rabbit; also called B1-#72-1
B6: mAb of B cell clone 74 (supernatant) (antibody, V domains shown)
VH: QSLEESGGGLVKPGASLTLTCTASGFSLNRYYMCWVRQAPGKGLEWIGCIYSGSGSTYYASWAKGRFTISKTSSTTVTLQMTSLPAADTATYFCGRLDYRVIYAFNLWGPGTLVTISS
VL: ELVLTQTPASVSAAVGGTVTINCQASQSIGSGNLAWYQQKPGQPPKLLIYLASTLASGVPPRFKGSGSGTEFTLTISDLECDDAATYYCQYTYYGTTYDNAFGGGTELEIK
notes: rabbit; also called B1-#74
B7: B1-#79 (antibody, V domains shown)
VH: B1 VH
VL: B1 VL
notes: recombinant rabbit IgG
B8: B1-#58-1 (antibody, V domains shown)
VH: B2 VH
VL: B2 VL
notes: recombinant rabbit IgG
B9: B1-#83 (antibody, V domains shown)
VH: B2 VH with E5K, G58A, S64T, A88P, I119V
VL: B2 VL with V3D
notes: recombinant rabbit IgG
B10: B1-#202-2 (antibody, V domains shown)
VH: SQSLEESGGGLVKPGASLTLTCKGSGFSFNGDYYMCWVRQTPGKGLEWIGCIYAAGDDTYYATWAKGRFTISKTSSTTVTLQMTSLTAADTATYFCARDQADSYAFGLWGPGTLVTISS
VL: ELVLTQTASPVSGAVGGTVTIKCQASQNIYSNLAWYQQKPGQPPKLLIYSASKLASGVPSRFKGSGSGTEYTLTISGVQCEDAATYYCQSYYYTASADTTFGGGTEVEIK
notes: recombinant rabbit IgG
B11: B1-#38 (antibody, V domains shown)
VH: EQSVEESEGGLVQPEGSLTLTCTASGFSFSNDYWICWVRQAPGKGLEWIGCGHIGSFRTTYYASWAKGRFSISKTSSTTVTLQMTSLTGADTATYFCARSPYDDGYGGFTFNLWGPGTLVTISS
VL: ELDMTQTPSSVEAAVGGTVTVKCQVSQSIGNAIAWYQQKPGQPPKLLIYKASTLASGVPSRFKGSGSGTEFTLTISDLECADAATYYCQNYYYSNTNSFGGGTEVVVK
notes: recombinant rabbit IgG
B12: B1-#175 (antibody, V domains shown)
VH: ESEGGLVKPGGTLTLTCKVSGIDFNSYKYYYMCWVRQAPGKGLEWIGCMSTASRNIYYASWAKGRFTISETSSTSVTLQMTTLTAADTATYFCAKSHGGDGGYGVVLWGPGTLVTISS
VL: ELVMTQTPSSVSAAVGDTLTINCQASETISNRLAWYQQKPGQPPKLLIYSASTLESGVPSRFRGSGSGTQFTLTISDLECADAATYYCQSIRSSSGVVHPNTFGGGTEVEIK
notes: recombinant rabbit IgG
B13: B1-#28 (antibody, V domains shown)
VH: EQSLEESGGGLVKPGASLTLTCKASGFSFSSDYDMCWVRQAPGKGLEWIGCIVTGFSGRIYYATWARGRFTFSRTSSTTLTLQMTSLTAADTATYFCARDSGNYNWDLWGPGTLVTISS
VL: ELDLTQTPTSVSAAVGGTVTIKCQASQSISDYLSWYQQKPGQPPKLLIYRASTLASGVPSRFKGSGSGTEFTLTISDLECADAATYYCQSNYYGSQGCTFGGGTEVEIK
notes: recombinant rabbit IgG
B14: B1-#160 (antibody, V domains shown)
VH: QEQLVESGGGLVQPEGSLTLTCKASGIDFSSGYWICWVRQAPGKGLELIACIFTSSGTTYYASWAKGRFTISKTSSTTVTLQMTSLTAADTATYFCARDIYSYGMDLWGPGTLVTVSS
VL: ELDLTQTPASVSAAVGGTVTIKCQASQSISSSYLAWYQQKPGQPPKLLIYSASSTASGVPSRFKGSGSGTQFTLTISDLECADAATYYCQSTYISSSKYGAVFGGGTELEIK
notes: recombinant rabbit IgG
B15: B1-#15 (antibody, V domains shown)
VH: EQSVEESGGDLVKPGASLTLTCTASGFSSSSSAYMCWVRQAPGKGLEWIACIFIGSGSDSYYATWAKGRFTISKTSSTTVTLQMTSLTAADTATYFCARNTYDWNGYIYGPCYFGLWGPGTLVTISS
VL: ELDLTQTPSSVEAAVGGTVTIKCQASQSIYNYLAWYQQKPGHSPKLLIYDVSKLASGVSSRFKGSGSGTEFTLTISDLECADAATYYCQSYYGNTVSFTFGGGTEVEIK
notes: recombinant rabbit IgG
B16: B1-#220 (antibody, V domains shown)
VH: QSVEESGGGLVQPEGSLTLTCTASGFSFSGIVYMCWVRQAPGKGLEWIACAFVGSGGSTYYATWATGRFTISKTSSTTVTLQMTSLTAADTATYFCAKSYNYNGLGLWGPGTLVTVSS
VL: ELDMTQTPASVSAAVGGTVTIKCQASQSITNALAWYQQKPGQPPKLLIYRASTLASGVSSRFKGSGSGTEFTLTISDLECADAATYYCQCSYYGSTYFGSPFGGGTEVEIK
notes: recombinant rabbit IgG
B17: B1-#56 (antibody, V domains shown)
VH: QSLEESGGDLVQPEGSLTLTCTASGFSFSINLYMCWVRQAPGKGLEWIACIYGNNNANTYYTTWAKGRFTISKTSPTTVTLQMTSLTGADTATYFCARDTAAYYAFSLWGPGTLVTISS
VL: ELVMTQTPSSSSAAVGGTVTIKCQASQSIGSRFAWYQQKPGQRPKLLIYEASKLPSGVPSRFKGSGSGTEFTLTISDLECADAAIYYCQCTYYESSSGGGFGGGTEVVVK
notes: recombinant rabbit IgG

These binders were tested against T1, human LILRB1 recombinant protein (human, UniProt Q8NHL6 24-461) (assay: ELISA, B cell supernatant).
T1 construct: The ELISA method says only 'LILRB1 recombinant proteins' coated on plates; also called leukocyte immunoglobulin-like receptor subfamily B member 1
T1 sequence (Q8NHL6 24-461 limits assumed): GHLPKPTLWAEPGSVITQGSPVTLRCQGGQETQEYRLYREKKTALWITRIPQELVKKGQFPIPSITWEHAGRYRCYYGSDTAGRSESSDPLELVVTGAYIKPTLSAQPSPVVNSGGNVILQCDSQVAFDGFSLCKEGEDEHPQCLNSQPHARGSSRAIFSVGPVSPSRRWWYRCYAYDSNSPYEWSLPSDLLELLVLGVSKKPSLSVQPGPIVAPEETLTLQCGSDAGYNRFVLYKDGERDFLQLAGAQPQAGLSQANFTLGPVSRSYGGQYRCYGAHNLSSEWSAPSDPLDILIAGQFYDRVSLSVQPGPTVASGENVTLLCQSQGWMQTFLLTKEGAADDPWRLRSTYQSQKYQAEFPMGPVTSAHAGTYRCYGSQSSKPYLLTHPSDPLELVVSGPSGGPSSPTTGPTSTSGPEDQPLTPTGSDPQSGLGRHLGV

Row | OD450 | Binder
1 | 2.32 OD450 | B1
2 | 2.26 OD450 | B2
3 | 2.32 OD450 | B3
4 | 2.14 OD450 | B4
5 | 2.25 OD450 | B5
6 | 2.4 OD450 | B6

These binders were tested against T2, recombinant LILRB1 (human, UniProt Q8NHL6 24-461) (assay: ELISA, coated recombinant LILRB1, antibody titration;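 note: serially diluted anti-LILRB1 antibodies incubated 60 min at 37 °C on plates coated with 50 ng/well recombinant protein, TMB colorimetric development read as absorbance at 450 nm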).
T2 construct: LILRB1-Fc proteins were also made; also called LILRB1 recombinant proteins
T2 sequence (Q8NHL6 24-461 limits assumed): as above
Experimental: ELISA. LILRB1 recombinant proteins (50 ng/well, 100 μL per well) were coated on Corning 96-well ELISA plates at 37° C. for 4 hrs. Plates were blocked for 2 hrs at 37° C. with 5% non-fat milk. After washing with PBST, 100 μL of serial diluted anti-LILRB1 antibodies were added and incubated for 60 min at 37° C. […] Plates were washed again with PBST for another 5 times, then the immunoreactions were developed with TMB substrates (Sigma, Cat #T0440) and stopped by the addition of 2 M H_2SO_4 before the plate was read at 450 nm.

Row | EC50 | Binder
7 | 0.0154 µg/mL | B7
8 | 0.0171 µg/mL | B8
9 | 0.0155 µg/mL | B9
10 | 0.0594 µg/mL | B10
11 | 0.181 µg/mL | B11
12 | 0.0053 µg/mL | B12
13 | 0.0242 µg/mL | B13
14 | 0.0285 µg/mL | B14
15 | 0.0093 µg/mL | B15
16 | 0.0106 µg/mL | B16
17 | 0.0438 µg/mL | B17
